Molecular target: the molecule itself
Assay: SEC-MALS; inhibitor and ligand mixed at molar ratios 5:1 to 1:5 (20 µM and 100 µM), 12 h at ambient temperature; free proteins injected separately; Superose 12 10/300 GL, 10 mM phosphate, 500 mM NaCl, pH 7.0, 0.3 mL/min

B1: PlGF-2 (ligand, UniProt P49763-3 19-170, looked up)
chain: LPAVPPQQWALSAGNGSSEVEVVPFQEVWGRSYCRALERLVDVVSEYPSEVEHMFSPSCVSLLRCTGCCGDENLHCVPVETANVTMQLLKIRSGDRPSYVELTFSQHVRCECRPLREKMKPERRRPKGRGKRRREKQRPTDCHLCGDAVPRR
notes: PlGF-2, isoform of placental growth factor; Dimer (~42 kDa by SEC-MALLS); also called placental growth factor
stoichiometry N: 2
